These results are taken from patent US20190101529, “TAU PROTEIN-BINDING DNA APTAMERS WITH CAPTURE/DETECTION AND THERAPEUTIC UTILITIES IN TAUOPATHY-RELATED NEURODEGENERATIVE DISORDERS” (UNIVERSITY OF FLORIDA RESEARCH FOUNDATION, INC., published 2019).

Where no end group is shown, it is not given here. [ ]: non-standard residue; d: D form. pT = C[C@@H](OP(=O)(O)O)[C@H](N)C(=O)O

The target in data set [1] is Tau441 (microtubule-associated protein tau, 2N4R) (UniProt P10636-8 P10636-8:1-441). Put plainly: BLI; PBS + 5 mM Mg2+, 30 C. The settings on record: tags: His-tag (SignalChem) for BLI, rPeptide Tau441 for aggregation assay. As to the method: (§1) The binding affinities and binding kinetics of the selected aptamers were determined on an Octet RED384 instrument (Pall Fortebio). All measurements were performed on 384-well plates that were agitated at 1000 rpm at 30° C. The his-tag peptides were immobilized at a concentration of 5 μg/mL on Ni-NTA sensors for 10 minutes, followed by rinsing the sensors in PBS for 10 min. Then the sensors were brought into fresh association buffer (PBS with 5 mM Mg2+) to establish a baseline for another 10 min. For kinetic analysis, the peptide-immobilized sensors were transferred to the wells containing aptamer dilutions (1 μM, 1.5 μM, 2 μM, 3 μM, 4 μM) for the association step (10 min), and then moved to the wells with fresh buffer for the dissociation step (10 min). A reference sensor was used without the treatment with aptamer solution but others steps remained the same. […] Association rate constants (kon), dissociation rate constants (koff), and equilibrium dissociation constants (Kd) for each aptamer binding to its target peptide were calculated using the FORTEBIO® data analysis software 10.0.
Chain of Tau441 (microtubule-associated protein tau, 2N4R) (P10636 other isoform, or with tags, fused parts or gaps): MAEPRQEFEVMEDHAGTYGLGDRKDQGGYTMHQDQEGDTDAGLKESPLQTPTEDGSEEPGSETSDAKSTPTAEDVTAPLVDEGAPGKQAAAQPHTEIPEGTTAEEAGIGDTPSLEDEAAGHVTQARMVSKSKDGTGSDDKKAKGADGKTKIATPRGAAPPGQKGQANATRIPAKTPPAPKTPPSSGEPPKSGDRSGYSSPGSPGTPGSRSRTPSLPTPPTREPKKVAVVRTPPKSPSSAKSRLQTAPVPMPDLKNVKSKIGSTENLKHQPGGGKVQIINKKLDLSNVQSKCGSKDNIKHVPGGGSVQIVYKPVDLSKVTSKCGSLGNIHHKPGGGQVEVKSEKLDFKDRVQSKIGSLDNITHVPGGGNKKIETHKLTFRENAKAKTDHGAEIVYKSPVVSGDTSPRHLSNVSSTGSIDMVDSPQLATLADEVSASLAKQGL

The next data set concerns the target T1, beta casein (UniProt P02666 P02666:16-224).
T1 sequence: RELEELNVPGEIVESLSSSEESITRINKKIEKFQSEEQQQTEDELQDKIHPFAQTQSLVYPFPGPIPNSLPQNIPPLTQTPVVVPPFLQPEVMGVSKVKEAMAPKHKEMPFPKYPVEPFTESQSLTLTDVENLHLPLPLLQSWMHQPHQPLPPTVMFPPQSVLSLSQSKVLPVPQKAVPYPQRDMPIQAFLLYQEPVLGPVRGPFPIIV
As to the kind of experiment: EMSA; 200 nM aptamer, 0.05 mg/mL protein, 4 C. The note with it: label: 5'-FAM (flow).

The target in the next data set is T2, alpha casein (UniProt P02662 P02662:16-214).
T2 sequence: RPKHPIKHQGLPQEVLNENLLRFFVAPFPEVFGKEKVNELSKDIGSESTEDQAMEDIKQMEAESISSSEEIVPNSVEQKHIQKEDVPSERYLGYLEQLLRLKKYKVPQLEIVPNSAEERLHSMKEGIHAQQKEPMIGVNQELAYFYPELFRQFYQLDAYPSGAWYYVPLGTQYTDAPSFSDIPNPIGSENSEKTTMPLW
Put plainly: EMSA; 200 nM aptamer, 0.05 mg/mL protein, 4 C. The note with it: label: 5'-FAM (flow).

A further data set has as its target UCH-L1 (UniProt P09936 P09936:1-223). As to the kind of experiment: EMSA; 200 nM aptamer, 0.05 mg/mL protein, 4 C. The note with it: label: 5'-FAM (flow).
The target of the next data set is BSA (UniProt P02769 P02769:25-607). As to the kind of experiment: EMSA; 200 nM aptamer, 0.05 mg/mL protein, 4 C. The settings on record: label: 5'-FAM (flow).
Chain of BSA (P02769 25-607, one chain of several): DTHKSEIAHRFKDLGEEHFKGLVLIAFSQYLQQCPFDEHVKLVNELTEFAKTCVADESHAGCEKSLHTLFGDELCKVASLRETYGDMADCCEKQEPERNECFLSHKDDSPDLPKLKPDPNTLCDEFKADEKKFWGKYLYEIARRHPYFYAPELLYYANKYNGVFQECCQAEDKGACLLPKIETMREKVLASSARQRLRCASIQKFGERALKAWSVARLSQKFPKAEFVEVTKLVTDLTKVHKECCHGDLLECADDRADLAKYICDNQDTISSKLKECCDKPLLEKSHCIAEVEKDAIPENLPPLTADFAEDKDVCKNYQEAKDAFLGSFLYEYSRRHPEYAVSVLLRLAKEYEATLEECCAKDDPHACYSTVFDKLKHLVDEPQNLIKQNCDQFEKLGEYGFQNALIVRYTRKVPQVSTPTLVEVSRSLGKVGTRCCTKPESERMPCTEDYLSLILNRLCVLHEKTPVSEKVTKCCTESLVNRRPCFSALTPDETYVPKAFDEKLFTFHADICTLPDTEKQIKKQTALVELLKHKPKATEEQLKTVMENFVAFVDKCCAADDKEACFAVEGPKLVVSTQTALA
Data set [2] concerns the target T3, Tau T231 peptide (UniProt P10636).
T3 chain: KVAVVRTPPKSPS
As to the kind of experiment: flow; no significant background binding; PBS + 5 mM MgCl2, 4 C. The settings on record: protein: synthetic; tags: synthetic (GenScript), N-terminal acetyl, C-terminal Ahx-Ahx-His6; label: fluorophore. As to the method: (§2) For each sample, 20 μL of peptide-beads or bare beads (˜1.4×105 beads) was washed against 500 μL of PBS three times. After removing the supernatant, beads were suspended in 80 μL of buffer containing either DNA pool or aptamer candidate to be tested at 250 nM for 30 min, but the DNA concentration used was 100 nM instead of 250 nM when examining the saturation of fluorescent signal with the selection pools. Incubations were carried out at 4° C. unless stated otherwise. Afterwards, beads were washed against 500 μL of PBS with additional 5 mM Mg2+ twice and then were suspended in 80 μL of buffer for flow cytometric analysis.
The supernatant collected after the fourth negative incubation then was carried to the 8th round of positive incubation, in which the concentration of the peptide solutions used to modify Ni-NTA beads was doubled to 800 μg/mL. Moving forward, the following selection rounds were conducted with sandwiched negative incubations to eliminate the possibility of enriching any oligonucleotides recognizing the surface of the beads and with positive beads prepared with more concentrated peptide solutions (800 μg/mL) to raise the recovery rate of the desired candidates. The SELEX progress was then evaluated again with amplicons obtained in Round #10 and Round #11. […] Four oligonucleotides were used as reference sequences.

For data set [3], the target named is T3, Tau T231 peptide. As to the kind of experiment: BLI; PBS + 5 mM Mg2+, 30 C. The note with it: protein: synthetic; tags: synthetic peptide (GenScript), N-terminal acetyl, C-terminal (Ahx)2-His6. The protocol:
as §1

Another data set addresses T4, Tau S202 peptide.
T4 chain: GYSSPGSPGTPGSR
Put plainly: flow; binding lost completely; 4 C. The note with it: protein: synthetic; tags: synthetic peptide (GenScript), N-terminal acetyl, C-terminal (Ahx)2-His6. As to the method:
as §2, with “BD ACCURI™ C6 flow cytometry (BD Immunocytometry Systems) was used to monitor the enrichment of aptamer candidates during the selection process and to evaluate the binding specificity of the selected aptamer candidates. For” for “For”

Data set [4] deals with T3, Tau T231 peptide. As to the kind of experiment: flow; binding lost completely; 4 C. The settings on record: protein: synthetic; tags: synthetic peptide (GenScript), N-terminal acetyl, C-terminal (Ahx)2-His6. The protocol:
as §2, with “BD ACCURI™ C6 flow cytometry (BD Immunocytometry Systems) was used to monitor the enrichment of aptamer candidates during the selection process and to evaluate the binding specificity of the selected aptamer candidates. For” for “For”

Another data set has as its target T5, Tau T231P phosphopeptide (UniProt P10636).
T5 chain: KVAVVR[pT]PPKSPS
As to the kind of experiment: flow; binding lost completely; 4 C. The note with it: protein: synthetic. The protocol:
as §2, with “BD ACCURI™ C6 flow cytometry (BD Immunocytometry Systems) was used to monitor the enrichment of aptamer candidates during the selection process and to evaluate the binding specificity of the selected aptamer candidates. For” for “For”

The target of data set [5] is T3, Tau T231 peptide. Put plainly: flow; binding lost; 4 C. The settings on record: protein: synthetic; tags: synthetic peptide (GenScript), N-terminal acetyl, C-terminal (Ahx)2-His6. As to the method:
as §2, with “BD ACCURI™ C6 flow cytometry (BD Immunocytometry Systems) was used to monitor the enrichment of aptamer candidates during the selection process and to evaluate the binding specificity of the selected aptamer candidates. For” for “For”

Chain of UCH-L1 (P09936 whole entry, one chain of several): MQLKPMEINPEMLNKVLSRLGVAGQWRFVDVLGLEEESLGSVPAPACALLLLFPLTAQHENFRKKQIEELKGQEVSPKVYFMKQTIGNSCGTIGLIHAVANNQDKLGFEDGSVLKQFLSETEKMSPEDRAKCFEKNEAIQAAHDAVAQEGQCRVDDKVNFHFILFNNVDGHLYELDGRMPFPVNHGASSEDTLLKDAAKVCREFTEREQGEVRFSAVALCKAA

B1: IT6a (ssDNA)
DNA: CACCGTCAACTGAATGTTGTCGTCAGAGGTTATAACCTGAACTCGGTG
For the molecule B1, the Kd in [1] was 28.2 nM.

B2: IT6 (ssDNA)
DNA: CAGCACCGTCAACTGAATGTTGTCGTCAGAGGTTATAACCTGAACTCGGTGATGCGATGGAGATGT
With B2, the Kd in [1] (label: 5'-FAM (flow), branched hairpin (predicted)) is 26.8 nM.

B3: IT4 (ssDNA)
DNA: CAGCACCGTCAACTGAATGGGTTGGCCGGGCAGCGGGGGGTAGGCTTGGTGATGCGATGGAGATGT
For the molecule B3, the binding result with beta casein, in the data set with alpha casein, with UCH-L1 and in the data set with BSA was “no binding” each time. Besides, the Kd in data set [1] (label: 5'-FAM (flow)) amounted to 68 nM.

B4: Ref1 (ssDNA)
DNA: GCGGAGCGTGGCAGG
As to B4, the binding result with Tau T231 peptide [2] is on record as “no binding”.

B5: IT1c (ssDNA)
DNA: GCTTGGTCCTCCCGGGGTTCTGGAAAAGC
B5: the Kd with Tau T231 peptide [3] is 46 nM; in data set [1], 13 nM.

B6: Ref2 (ssDNA)
DNA: AACGAGAAGCGCGATCACAT
Turning to B6, the binding result in the data set with Tau T231 peptide [2] is recorded as “no binding”.

B7: IT3 (ssDNA)
DNA: CAGCACCGTCAACTGAATGGGGAGAGTGGTGGGGCGGGGGCCGGATCCGTGATGCGATGGAGATGT
For the molecule B7, the binding result with beta casein, with alpha casein, with UCH-L1 and with BSA was “no binding” throughout. Also, the Kd in data set [1] (label: 5'-FAM (flow)) is 17 nM.

B8: IT2b (ssDNA)
DNA: AAGGACTGCTTAGGATTGC
On to B8, for which the binding result in the data set with Tau S202 peptide, with Tau T231 peptide [4] and with Tau T231P phosphopeptide was “no binding” in each case.

B9: IT5 (ssDNA)
DNA: CAGCACCGTCAACTGAATGGCGGGGGGTCAGGTCGGGGTAAGGTGAGCGTGATGCGATGGAGATGT
In the case of B9, the binding result with beta casein, in the data set with alpha casein, in the data set with UCH-L1 and with BSA was “no binding” each time. Also, the Kd in data set [1] (label: 5'-FAM (flow)) was found to be 7.6 nM.

B10: IT9 (ssDNA)
DNA: CAGCACCGTCAACTGAATTGCGGGGGGTCAGGTCGGGGTAAGGTGAGCGTGATGCGATGGAGATGT
B10: the binding result in the data set with beta casein, with alpha casein, in the data set with UCH-L1 and with BSA was “no binding” each time. In data set [1] (label: 5'-FAM (flow)), the Kd turned out to be 22.8 nM.

B11: IT2a (ssDNA)
DNA: CTGAATAAGGACTGCTTAGGATTGCGATGATTCAG
Take B11: the Kd in data set [1] (hairpin) was 19.5 nM.

B12: IT2 (ssDNA)
DNA: CAGCACCGTCAACTGAATAAGGACTGCTTAGGATTGCGATGATTCAGGGTGATGCGATGGAGATGT
As for B12, the Kd in data set [1] (label: 5'-FAM (flow)) was found to be 5.5 nM.

B13: IT1d (ssDNA)
DNA: TTGGTCCTCCCGGGGTTCTGGAAAA
Turning to B13, the binding result with Tau T231 peptide [5] is “no binding”.

B14: Ref3 (ssDNA)
DNA: CTTCTGCCCGCCTCCTTCC
As to B14, in the data set with Tau T231 peptide [2], the binding result is recorded as “no binding”.

B15: IT1 (ssDNA)
DNA: CAGCACCGTCAACTGAATTGCTTGGTCCTCCCGGGGTTCTGGAAAAGCGTGATGCGATGGAGATGT
As to B15, in [1] (label: 5'-FAM (flow)), the Kd amounted to 9 nM.
